Test results reported in patent publication US5316935A, “Subtilisin variants suitable for hydrolysis and synthesis in organic media” (California Institute of Technology, priority 1992, dated 1994).
Starred links: 1 amine or outer side, 2 acyl side, 3 side chain; linkers in the order of their positions; H or OH if unused. Residues, ends and D or L forms follow the SMILES beside them. *: point of attachment. pNA = O=[N+]([O-])c1ccc(N*)cc1; Suc = O=C(CCC(=O)[*:2])[*:1]

Experiments:
[1] = biological target: T1, Bacillus subtilis subtilisin E (subtilisin I168, aprA gene product), wild type, SEQ ID NO: 1 (Bacillus subtilis, UniProt P04189); experiment: Transesterification of methyl ester to ethyl ester in organic solvents; format: biochemical; conditions: 1M ethanol, 32° C.
T1 construct: each contain 275 residues; made in house; host or cells: Bacillus subtilis DB428 (vector pKWC), secreted into the medium
Procedure: (§1) The activity of the D60N+Q103R+N218S (3M) subtilisin E triple variant was compared to that of the wild-type enzyme for the transesterification of N-acetyl-L-phenylalanine methyl ester to the ethyl ester in three organic solvents. The reactions were carried out in 2 mL volumes of the indicated solvent, containing 1 mg/mL of enzyme, 100 mM N-acetyl-L-phenylalanine methyl ester, 1M ethanol. The samples were incubated, with shaking, at 32° C., and the formation of the ethyl ester product was measured by capillary gas chromatography. Values of the kinetic constants kcat /KM are given in Table VII for the wild-type and 3M variant enzymes. In all three solvents, anhydrous hexane, hexane containing 0.1% water, and acetonitrile containing 0.1% water, the D60N+Q103R+N218S (3M) triple variant was considerably more efficient than the wild-type enzyme.

[2] = biological target: T2, Bacillus subtilis subtilisin E variant 3M (D60N + Q103R + N218S) (Bacillus subtilis, UniProt P04189, A256V/D166N/N324S/Q209R); experiment: as above; format: biochemical; conditions: 1M ethanol, 32° C.
T2 construct: each contain 275 residues; made in house; host or cells: Bacillus subtilis DB428 (vector pKWC), secreted into the medium
T2 sequence (P04189 107-381 D166N/Q209R/A256V/N324S): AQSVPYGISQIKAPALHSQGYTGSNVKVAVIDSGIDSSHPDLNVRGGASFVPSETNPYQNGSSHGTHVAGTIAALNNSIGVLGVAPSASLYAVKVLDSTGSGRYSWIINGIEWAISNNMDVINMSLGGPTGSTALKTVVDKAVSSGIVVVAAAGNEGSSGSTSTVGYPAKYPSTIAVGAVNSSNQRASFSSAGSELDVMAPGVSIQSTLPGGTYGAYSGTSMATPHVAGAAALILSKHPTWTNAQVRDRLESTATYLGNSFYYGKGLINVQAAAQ
Procedure: as §1

[3] = biological target: T3, Bacillus subtilis subtilisin E variant Q103R (Bacillus subtilis, UniProt P04189, A256V/Q209R); experiment: Amidase activity: hydrolysis of p-nitroanilide peptide substrates; format: biochemical; conditions: 0.1M Tris-HCl, 10 mM CaCl2, pH 8, 37° C.
T3 construct: each contain 275 residues; made in house; host or cells: Bacillus subtilis DB428 (vector pKWC), secreted into the medium
T3 sequence (P04189 107-381 Q209R/A256V): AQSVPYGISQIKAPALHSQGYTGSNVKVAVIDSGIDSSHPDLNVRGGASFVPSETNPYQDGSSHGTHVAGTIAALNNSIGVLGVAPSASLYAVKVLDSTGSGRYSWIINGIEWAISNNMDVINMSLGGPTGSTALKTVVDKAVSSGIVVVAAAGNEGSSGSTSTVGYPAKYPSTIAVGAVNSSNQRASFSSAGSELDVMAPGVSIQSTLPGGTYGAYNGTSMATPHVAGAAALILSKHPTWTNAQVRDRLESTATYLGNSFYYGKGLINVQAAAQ
Procedure: (§2) The amidase activities of subtilisin and derivatives thereof were measured on the substrate succinyl-Ala-Ala-Pro-Phe-p-nitroanilide (sAAPF-pna) at 37° C. in 0.1M Tris-HCl, pH 8.0 and 10 mM CaCl2. Assays were initiated by mixing the enzyme, the substrate and the reaction buffer. The amount of released p-nitroaniline was measured spectrophotometrically at 410 nm as a function of time. KM and kcat values for hydrolysis of sAAPF-pna by the subtilisin variants were obtained by nonlinear regression of the data using the program Enzfitter (Biosoft).
(§3) For activity measurements in mixed buffer (containing DMF), a portion of the aqueous buffer was replaced by the percentage (w/v) of DMF indicated in Table II. Kinetic constants are reported in Table II for the wild-type enzyme and six variants with 3-10 amino acid substitutions in 20% and 40% DMF.
The effects of different amino acid substitutions at position 103 on amidase activity were investigated. The variants Q103E, Q103K, and Q103S were constructed by PCR site-directed mutagenesis as described in Example VIII. The amidase activities of these variants and the variant Q103R identified by random mutagenesis and screening for enhanced activity in the presence of DMF (Example IV) are compared in Table III. The reactions were carried out in 10% DMF according to the procedures outlined in Examples XI and XII.
The effects of the Q103R amino acid substitution on amidase activity were investigated for two substrates, succinyl-Ala-Ala-Pro-Phe-p-nitroanilide (negatively-charged succinyl group at the peptide N-terminus) and Ala-Ala-Pro-Phe-p-nitroanilide (positively charged N-terminus) in 10% DMF.

[4] = substrate: C[C@H](NC(=O)CCC(=O)O)C(=O)N[C@@H](C)C(=O)N1CCC[C@H]1C(=O)N[C@@H](Cc1ccccc1)C(=O)Nc1ccc([N+](=O)[O-])cc1; experiment: as above; format: biochemical, Bacillus subtilis; conditions: 0.1M Tris-HCl, 10 mM CaCl2, pH 8, 37° C.
[5] = substrate: C[C@H](N)C(=O)N[C@@H](C)C(=O)N1CCC[C@H]1C(=O)N[C@@H](Cc1ccccc1)C(=O)Nc1ccc([N+](=O)[O-])cc1; experiment: as above; format: biochemical, Bacillus subtilis; conditions: other: 10% DMF (Table IV), 0.1M Tris-HCl, 10 mM CaCl2, pH 8, 37° C.
[6] = substrate: C[C@H](NC(=O)CCC(=O)O)C(=O)N[C@@H](C)C(=O)N1CCC[C@H]1C(=O)N[C@@H](Cc1ccccc1)C(=O)Nc1ccc([N+](=O)[O-])cc1; experiment: as above; format: biochemical, Bacillus subtilis; conditions: other: 0% DMF, 0.1M Tris-HCl, 10 mM CaCl2, pH 8, 37° C.
Procedure: as §2, §3

[7] = substrate: C[C@H](NC(=O)CCC(=O)O)C(=O)N[C@@H](C)C(=O)N1CCC[C@H]1C(=O)N[C@@H](Cc1ccccc1)C(=O)Nc1ccc([N+](=O)[O-])cc1; experiment: Amidase activity: hydrolysis of p-nitroanilide peptide substrate; format: biochemical, Bacillus subtilis; conditions: other: 0% DMF, 0.1M Tris-HCl, 10 mM CaCl2, pH 8, 37° C.
Procedure: as §2, §3

COC(=O)[C@H](Cc1ccccc1)NC(C)=O [N-acetyl-L-phenylalanine methyl ester]
kcat /KM ([1]; Ch3 CN (0.1% water)): 0.3 Min^-1 mg^-1 × 10^-3 | kcat /KM ([1]; hexane (0.1% water)): 5 Min^-1 mg^-1 × 10^-3 | kcat /KM ([1]; hexane (anhydrous)): 0.4 Min^-1 mg^-1 × 10^-3 | kcat /KM ([2]; Ch3 CN (0.1% water)): 3.1 Min^-1 mg^-1 × 10^-3 | kcat /KM ([2]; hexane (0.1% water)): 220 Min^-1 mg^-1 × 10^-3 | kcat /KM ([2]; hexane (anhydrous)): 17 Min^-1 mg^-1 × 10^-3

C[C@H](N)C(=O)N[C@@H](C)C(=O)N1CCC[C@H]1C(=O)N[C@@H](Cc1ccccc1)C(=O)Nc1ccc([N+](=O)[O-])cc1 [AAPFpna, Ala-Ala-Pro-Phe-p-nitroanilide] (H-AAPF-pNA)
Km ([3]; 10% DMF (Table IV)): ≥ 37000 µM | kcat ([3]; 10% DMF (Table IV)): ≥ 2.6 s⁻¹ | kcat /KM ([3]; 10% DMF (Table IV)): 0.07 M^-1 s^-1 × 10^3

C[C@H](NC(=O)CCC(=O)O)C(=O)N[C@@H](C)C(=O)N1CCC[C@H]1C(=O)N[C@@H](Cc1ccccc1)C(=O)Nc1ccc([N+](=O)[O-])cc1 [succinyl-Ala-Ala-Pro-Phe-p-nitroanilide] (Suc-AAPF-pNA)
kcat /KM ([3]; 20% DMF): 6.8 M^-1 s^-1 × 10^-3

B1: Bacillus subtilis subtilisin E (subtilisin I168, aprA gene product), wild type, SEQ ID NO: 1 (Bacillus subtilis subsp. subtilis str. 168) (protein)
chain: AQSVPYGISQIKAPALHSQGYTGSNVKVAVIDSGIDSSHPDLNVRGGASFVPSETNPYQDGSSHGTHVAGTIAALNNSIGVLGVAPSASLYAVKVLDSTGSGQYSWIINGIEWAISNNMDVINMSLGGPTGSTALKTVVDKAVSSGIVVAAAAGNEGSSGSTSTVGYPAKYPSTIAVGAVNSSNQRASFSSAGSELDVMAPGVSIQSTLPGGTYGAYNGTSMATPHVAGAAALILSKHPTWTNAQVRDRLESTATYLGNSFYYGKGLINVQAAAQ
notes: each contain 275 residues; made in house; host or cells: Bacillus subtilis DB428 (vector pKWC), secreted into the medium
Km ([4]; other: 10% DMF (Table III)): 2900 µM | kcat ([4]; other: 10% DMF (Table III)): 20 s⁻¹ | kcat/Km ([4]; other: 10% DMF (Table III)): 7.0 M^-1 s^-1 × 10^3 | Km ([4]; other: 10% DMF (Table IV)): 510 µM | kcat ([4]; other: 10% DMF (Table IV)): 21 s⁻¹ | kcat/Km ([4]; other: 10% DMF (Table IV)): 41 M^-1 s^-1 × 10^3 | Km [5]: 7800 µM | kcat [5]: 0.83 s⁻¹ | kcat/Km [5]: 0.11 M^-1 s^-1 × 10^3 | Km [6]: 560 µM | kcat [6]: 21 s⁻¹ | kcat/Km [6]: 38 M^-1 s^-1 × 10^3

B2: Bacillus subtilis subtilisin E variant 4M (D60N + Q103R + N218S + D97G) (Bacillus subtilis subsp. subtilis str. 168; A256V/D166N/D203G/N324S/Q209R) (protein)
chain: AQSVPYGISQIKAPALHSQGYTGSNVKVAVIDSGIDSSHPDLNVRGGASFVPSETNPYQNGSSHGTHVAGTIAALNNSIGVLGVAPSASLYAVKVLGSTGSGRYSWIINGIEWAISNNMDVINMSLGGPTGSTALKTVVDKAVSSGIVVVAAAGNEGSSGSTSTVGYPAKYPSTIAVGAVNSSNQRASFSSAGSELDVMAPGVSIQSTLPGGTYGAYSGTSMATPHVAGAAALILSKHPTWTNAQVRDRLESTATYLGNSFYYGKGLINVQAAAQ
notes: as for B1
Km [7]: 170 µM | kcat [7]: 43 s⁻¹ | kcat/Km [7]: 249 M^-1 s^-1 × 10^3
